Assay results taken from US20100196390A1 (RINAT NEUROSCIENCE, published 2010).
Substitutions are numbered along the chain they refer to.

B1: C2 (Fab, V domains shown)
VH: QVQLVQSGAEVKKPGASVKVSCKASGYTFTNYDIIWVRQAPGQGLEWMGYINPYNDGTKYNEKFKGRVTMTRDTSTSTVYMELSSLRSEDTAVYYCARLLKYRRFRYYAIDYWGQGTTVTVSS
VL: DIQMTQSPSSLSASVGDRVTITCRTSENVYSNLAWYQQKPGKAPKLLIYAASNLQSGVPSRFSGSGSGTDYTFTISSLQPEDIATYYCQHFWGSPFTFGQGTKLEIK
notes: Fab
B2: RN1026A (Fab, V domains shown)
VH: B1 VH with D56R, G57R, T58R, K59E
VL: B1 VL with T25A, Y71F
notes: Fab
B3: 16-C3 (Fab, V domains shown)
VH: B1 VH
VL: B1 VL with T25A, Y71F, H90Q, G93Y
notes: Fab
B4: 16-D6 (Fab, V domains shown)
VH: B1 VH with R106K
VL: B1 VL with T25A, Q55A, S56D, Y71F, H90D, G93Y
notes: Fab
B5: 16-E4 (Fab, V domains shown)
VH: B1 VH
VL: B1 VL with T25A, Y71F, G93Y, F96W
notes: Fab
B6: 16-F4 (Fab, V domains shown)
VH: B1 VH
VL: B1 VL with T25A, Q55A, S56D, Y71F, G93T
notes: Fab
B7: 16-G9 (Fab, V domains shown)
VH: B1 VH
VL: B1 VL with T25A, Y71F, G93Y, T97G
notes: Fab
B8: 16-H4 (Fab, V domains shown)
VH: B1 VH
VL: B1 VL with N28S, Y71F, G93A
notes: Fab
B9: A6-9 (Fab, V domains shown)
VH: B1 VH with G57R, T58R, K59R
VL: B1 VL with R24H, T25A
notes: Fab
B10: A6-10 (Fab, V domains shown)
VH: B1 VH with D56R, T58R, K59E
VL: B1 VL with R24H, T25A
notes: Fab
B11: A6-11 (Fab, V domains shown)
VH: B1 VH with D56R, G57R, K59E
VL: B1 VL with R24H, T25A
notes: Fab
B12: T1-HuC1 (Fab, V domains shown)
VH: B1 VH with R106S
VL: B1 VL with T25A, Q55A, S56D, Y71F, G93Y
notes: Fab
B13: 4A6 (Fab, V domains shown)
VH: B1 VH with D56R, G57R, T58R, K59E
VL: B1 VL with R24H, T25A
notes: Fab
B14: 4B12 (Fab, V domains shown)
VH: B1 VH with D56G, G57R, T58R, K59E
VL: B1 VL with T25A, N28P, L33V
notes: Fab
B15: A2 (Fab, V domains shown)
VH: B1 VH
VL: B1 VL with T25A, G93Y, F96W
notes: Fab

Target: T1, human TrkB monomer (His ECD) (human, UniProt Q16620 32-430)
T1 construct: extracellular domain; amine-coupled to the chip
Test: Biacore, 25 C
Method in brief: (§1)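 Monovalent Fab fragments were tested at 25° C by surface plasmon resonance on a Biacore instrument, against TrkB extracellular-domain monomer amine-coupled to the chip at low capacity. Fabs were injected low to high as a 3-fold serial dilution from 100 nM for 84 sec, with a 10 minute dissociation after the top sample. The dissociation half-life was calculated from koff, which was fitted to a Langmuir binding model in BIAevaluation. The formula used was T1/2 = Log 2/koff.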

T1 sequence (Q16620 32-430): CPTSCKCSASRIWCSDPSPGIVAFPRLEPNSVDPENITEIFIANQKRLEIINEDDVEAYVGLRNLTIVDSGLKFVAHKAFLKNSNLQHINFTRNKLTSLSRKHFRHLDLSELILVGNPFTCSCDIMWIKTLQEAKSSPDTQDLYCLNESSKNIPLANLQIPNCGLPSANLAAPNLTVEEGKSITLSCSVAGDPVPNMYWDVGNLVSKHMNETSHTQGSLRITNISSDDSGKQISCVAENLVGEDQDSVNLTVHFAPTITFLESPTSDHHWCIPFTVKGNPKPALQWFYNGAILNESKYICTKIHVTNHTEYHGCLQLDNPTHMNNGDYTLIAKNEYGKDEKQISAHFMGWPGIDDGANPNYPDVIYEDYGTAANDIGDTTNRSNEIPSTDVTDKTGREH

| Binder | T1/2 [min] |
| --- | --- |
| B1 | 2.9 |

Target: T1, human TrkB monomer (His ECD)
Test: Biacore, 37 C
Method in brief: as §1, with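 “37°” for “25°”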

| Binder | T1/2 [min] |
| --- | --- |
| B2 | 4.53 |

Target: T2, TrkB (Homo sapiens (Human), UniProt Q16620 32-430)
Test: koff of Fab at 25 C; T1/2=Log2/koff
Method in brief: as §1

T2 sequence (Q16620 32-430 limits assumed): as the sequence (Q16620 32-430) above

| Binder | T1/2 [min] |
| --- | --- |
| B3 | 1 |
| B4 | 1 |
| B5 | 7 |
| B6 | 5 |
| B7 | 4 |
| B8 | 6 |
| B9 | 11.8 |
| B10 | 4 |
| B11 | 9.9 |
| B12 | 1.7 |
| B13 | 13.2 |
| B14 | 12.8 |
| B15 | 6 |
| B1 | 2.9 |

Target: T2, TrkB
Test: koff of Fab at 37 C; T1/2=Log2/koff
Method in brief: as §1, with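 “37°” for “25°”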

| Binder | T1/2 [min] |
| --- | --- |
| B2 | 4.5 |

Target: T1, human TrkB monomer (His ECD)
Test: SPR (Biacore), TrkB His ECD monomer on chip, 37 C
Experimental: (§2) TrkB monomers (H is ECD) of human, mouse, and rat were amine-coupled to the chip at levels of 2008, 1008, and 889RU respectively in an effort to give low capacity surfaces suitable for kinetic analysis. Fabs (C1, C2, A2, 4A6, and 4B12) were diluted to 100 nM (according to their labeled concentrations by NanoDrop, using 1AU=0.6 mg/mL) to give the top concentration of a 3 fold serial dilution. Samples were injected from low to high concentration as a titration series for 84 sec, allowing a 10 minute dissociation phase for the 100 nM sample. […] The full-length mouse anti-TrkB antibody 38B8-IgG was used as a (+) control to confirm that the chip was active.
(§3) The concentrations of the Fab proteins are determined by ELISA and/or SDS-PAGE electrophoresis using a Fab of known concentration (as determined by amino acid analysis) as a standard. Kinetic association rates (kₒₙ) and dissociation rates (koff) (generally measured at 25° C. or 37° C.) are obtained simultaneously by fitting the data to a 1:1 Langmuir binding model (Karlsson, R. Roos, H. Fagerstam, L. Petersson, B., 1994 Methods Enzymology 6:99-110) using the BIAevaluation program. Equilibrium dissociation constant (KD) values are calculated as koff/kₒₙ.

| Binder | Kd [nM] | koff [s⁻¹] | kon [M⁻¹ s⁻¹] |
| --- | --- | --- | --- |
| B2 | 1.27 | 0.00255 | 2e+06 |
| B13 | 0.17 | 0.000372 | 2.14e+06 |

Target: T3, mouse TrkB monomer (His ECD) (mouse, UniProt P15209 32-429)
T3 construct: extracellular domain; amine-coupled to the chip
Test: SPR (Biacore), TrkB His ECD monomer on chip, 37 C
Experimental: as §2, §3

T3 sequence (P15209 32-429): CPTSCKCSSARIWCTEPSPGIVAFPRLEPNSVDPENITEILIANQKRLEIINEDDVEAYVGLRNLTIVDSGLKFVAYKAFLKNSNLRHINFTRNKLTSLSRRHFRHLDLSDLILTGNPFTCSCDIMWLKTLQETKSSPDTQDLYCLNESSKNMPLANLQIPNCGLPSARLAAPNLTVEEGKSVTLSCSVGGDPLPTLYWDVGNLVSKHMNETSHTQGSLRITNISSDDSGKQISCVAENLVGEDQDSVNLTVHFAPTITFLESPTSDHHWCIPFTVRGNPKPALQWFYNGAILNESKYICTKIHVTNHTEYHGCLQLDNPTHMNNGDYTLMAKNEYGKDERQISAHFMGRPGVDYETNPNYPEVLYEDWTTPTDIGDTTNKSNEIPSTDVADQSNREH

| Binder | Kd [nM] | koff [s⁻¹] | kon [M⁻¹ s⁻¹] |
| --- | --- | --- | --- |
| B2 | 2.27 | 0.00396 | 1.75e+06 |
| B13 | 0.37 | 0.00066 | 1.76e+06 |

Target: T4, rat TrkB monomer (His ECD) (rat, UniProt Q63604 32-429)
T4 construct: extracellular domain; amine-coupled to the chip
Test: SPR (Biacore), TrkB His ECD monomer on chip, 37 C
Experimental: as §2, §3

T4 sequence (Q63604 32-429): as the sequence (P15209 32-429) above, with T3M, S9T, A10T, V32I, R63K, S84G, M153T, L185I, S394T counted along it

| Binder | Kd [nM] | koff [s⁻¹] | kon [M⁻¹ s⁻¹] |
| --- | --- | --- | --- |
| B2 | 4 | 0.00924 | 1.41e+06 |
| B13 |  |  | 1.36e+06 |

Target: T1, human TrkB monomer (His ECD)
Test: SPR (Biacore), Fab over amine-coupled TrkB His ECD monomer, 25 C
Experimental: as §2, §3

| Binder | Kd [nM] | koff [s⁻¹] | kon [M⁻¹ s⁻¹] |
| --- | --- | --- | --- |
| B13 | 0.18 | 0.000705 | 3.89e+06 |
| B14 | 0.21 | 0.000532 | 2.5e+06 |
| B15 | 1.08 | 0.00145 | 1.34e+06 |
| B1 | 2.54 | 0.0014 | 552000 |

Target: T3, mouse TrkB monomer (His ECD)
Test: as above
Experimental: as §2, §3

| Binder | Kd [nM] | koff [s⁻¹] | kon [M⁻¹ s⁻¹] |
| --- | --- | --- | --- |
| B13 | 0.02 | 9.24e-05 | 4.35e+06 |
| B14 | 0.06 | 0.000146 | 2.38e+06 |
| B15 | 0.51 | 0.000636 | 1.24e+06 |
| B1 | 1.44 | 0.000734 | 510000 |

Target: T4, rat TrkB monomer (His ECD)
Test: as above
Experimental: as §2, §3

| Binder | Kd [nM] | koff [s⁻¹] | kon [M⁻¹ s⁻¹] |
| --- | --- | --- | --- |
| B13 | 0.27 | 0.000666 | 2.45e+06 |
| B14 | 0.41 | 0.00081 | 1.99e+06 |
| B15 | 1.18 | 0.00152 | 1.29e+06 |
| B1 | 2.29 | 0.00146 | 638000 |
